These results are taken from ChEMBL document CHEMBL1157618, “Noncovalent tripeptidyl benzyl- and cyclohexyl-amine inhibitors of the cysteine protease caspase-1” (J Med Chem, 2010).

Substrate in the data set: CC(C)[C@H](NC(=O)c1ccc2ccccc2c1)C(=O)N[C@@H](C)C(=O)N[C@H](CNCc1ccccc1O)CC(=O)O
To be noted: Homo sapiens.

Usually Km stands for the substrate concentration at which the rate is half of its maximum.

Description: Activity of human recombinant caspase 1

B1: Caspase-1 (Homo sapiens), P29466 (protein)
chain: MADKVLKEKRKLFIRSMGEGTINGLLDELLQTRVLNKEEMEKVKRENATVMDKTRALIDSVIPKGAQACQICITYICEEDSYLAGTLGLSADQTSGNYLNMQDSQGVLSSFPAPQAVQDNPAMPTSSGSEGNVKLCSLEEAQRIWKQKSAEIYPIMDKSSRTRLALIICNEEFDSIPRRTGAEVDITGMTMLLQNLGYSVDVKKNLTASDMTTELEAFAHRPEHKTSDSTFLVFMSHGIREGICGKKHSEQVPDILQLNAIFNMLNTKNCPSLKDKPKVIIIQACRGDSPGVVWFKDSVGVSGNLSLPTTEEFEDDAIKKAHIEKDFIAFCSSTPDNVSWRHPTMGSVFIGRLIEHMQEYACSCDVEEIFRKVRFSFEQPDGRAQMPTTERVTLTRCFYLFPGH
With B1, the Michaelis-Menten constant (Km) was 5.8 µM.
